{"source": "paper PMC6245143", "about": "“Small-animal SPECT/CT imaging of cancer xenografts and pulmonary fibrosis using a ^99mTc-labeled integrin αvβ6-targeting cyclic peptide with improved in vivo stability” (Biophysics Reports, 2018)", "key": {"[1]": {"experiment": "Biodistribution in BxPC-3 tumor-bearing nude mice", "conditions": "female, BALB/c nude, in vivo, iv, total radioactivity; for tissue uptake at 1 h: 1 h after injection", "method": "(§1) All animal experiments were performed in accordance with the guidelines of Peking University Animal Care and Use Committee. To establish the BxPC-3 subcutaneous tumor model, BxPC-3 cells (1 × 10^7 in 100 μl of PBS) were inoculated subcutaneously into the right front flanks of female BALB/c nude mice. The animals were used for in vivo studies when the tumor size reached 200–300 mm^3 (3–4 weeks after inoculation). For the pulmonary fibrosis mouse model, BLM (1.5 units/kg, 50 μl in PBS) or PBS (50 μl; as a vehicle control) was administered once into the C57/BL6 mice by intratracheal injection. On day 21 (based on pilot studies), the mice with well-established pulmonary fibrosis were used for SPECT/CT imaging.\nBiodistribution studies were performed using female BALB/c nude mice bearing BxPC-3 xenografts. Mice received an injection via the tail vein of 370 kBq (10 μCi) of ^99mTc–HYNIC–cHK to evaluate the distribution of the radiotracer. The blocking experiments were also performed by coinjection of ^99mTc–HYNIC–cHK with a saturating dose of the HK peptide (500 μg per mouse). At 0.5, 1, and 2 h after injection, the animals were sacrificed, and the tumors and the organs/tissues of interest were dissected and wet-weighed, and the radioactivity in the tissue was measured using a γ-counter. The results are presented as percentages of injected dose per gram of tissue (%ID/g). Values are expressed as mean ± SD (n = 4 per group)."}, "[2]": {"conditions": "mouse; cited from earlier work", "text": "Due to the critical role of integrin αvβ6 in tumorigenesis and fibrogenesis, it has emerged as an appealing target for diagnostic imaging, prognosis evaluation, and therapeutic responses monitoring (Agarwal [2014]; Cantor et al. [2015]; Saini et al. [2015]; Yang et al. [2015]). Therefore, noninvasive and quantitative imaging of integrin αvβ6 expression by molecular imaging techniques would be of great potential for better management of these diseases. Previous studies have focused on the development of positron emission tomography (PET) and single-photon emission computed tomography (SPECT) ra ..."}, "[3]": {"target": "T1, integrin αvβ6-positive BxPC-3 cells (Homo sapiens, UniProt P06756+P18564)", "T1 construct": "host or cells: BxPC-3 human pancreatic cancer cells", "T1 sequence (P06756 31-889 limits assumed)": "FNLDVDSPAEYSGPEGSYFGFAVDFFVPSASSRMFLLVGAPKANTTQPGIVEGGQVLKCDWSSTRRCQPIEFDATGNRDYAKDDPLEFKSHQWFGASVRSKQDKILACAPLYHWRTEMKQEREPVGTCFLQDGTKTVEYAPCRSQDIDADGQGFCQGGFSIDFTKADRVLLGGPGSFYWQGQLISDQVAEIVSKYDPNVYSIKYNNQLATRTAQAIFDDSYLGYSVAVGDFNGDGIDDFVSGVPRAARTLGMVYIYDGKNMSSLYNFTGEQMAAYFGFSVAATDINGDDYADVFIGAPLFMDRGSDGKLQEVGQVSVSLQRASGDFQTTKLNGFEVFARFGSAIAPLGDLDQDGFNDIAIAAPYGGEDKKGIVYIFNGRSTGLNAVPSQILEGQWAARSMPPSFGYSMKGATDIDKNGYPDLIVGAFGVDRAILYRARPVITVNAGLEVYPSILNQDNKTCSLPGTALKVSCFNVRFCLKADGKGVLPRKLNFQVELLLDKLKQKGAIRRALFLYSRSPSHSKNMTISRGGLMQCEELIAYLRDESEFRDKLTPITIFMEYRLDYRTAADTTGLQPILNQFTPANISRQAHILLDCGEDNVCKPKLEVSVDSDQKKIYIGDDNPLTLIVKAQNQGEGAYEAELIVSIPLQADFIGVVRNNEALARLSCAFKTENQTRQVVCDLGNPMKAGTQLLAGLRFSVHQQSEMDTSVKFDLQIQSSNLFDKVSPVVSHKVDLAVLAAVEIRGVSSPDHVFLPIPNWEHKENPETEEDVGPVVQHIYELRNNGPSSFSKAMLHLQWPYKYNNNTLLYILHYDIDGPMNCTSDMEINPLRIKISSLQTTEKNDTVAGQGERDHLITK", "T1 sequence (P06756 891-1048 partner limits assumed)": "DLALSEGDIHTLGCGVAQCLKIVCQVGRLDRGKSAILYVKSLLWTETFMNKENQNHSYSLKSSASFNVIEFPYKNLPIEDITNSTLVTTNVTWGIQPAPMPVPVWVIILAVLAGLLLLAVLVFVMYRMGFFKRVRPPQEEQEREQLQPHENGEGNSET", "T1 sequence (P18564 22-788)": "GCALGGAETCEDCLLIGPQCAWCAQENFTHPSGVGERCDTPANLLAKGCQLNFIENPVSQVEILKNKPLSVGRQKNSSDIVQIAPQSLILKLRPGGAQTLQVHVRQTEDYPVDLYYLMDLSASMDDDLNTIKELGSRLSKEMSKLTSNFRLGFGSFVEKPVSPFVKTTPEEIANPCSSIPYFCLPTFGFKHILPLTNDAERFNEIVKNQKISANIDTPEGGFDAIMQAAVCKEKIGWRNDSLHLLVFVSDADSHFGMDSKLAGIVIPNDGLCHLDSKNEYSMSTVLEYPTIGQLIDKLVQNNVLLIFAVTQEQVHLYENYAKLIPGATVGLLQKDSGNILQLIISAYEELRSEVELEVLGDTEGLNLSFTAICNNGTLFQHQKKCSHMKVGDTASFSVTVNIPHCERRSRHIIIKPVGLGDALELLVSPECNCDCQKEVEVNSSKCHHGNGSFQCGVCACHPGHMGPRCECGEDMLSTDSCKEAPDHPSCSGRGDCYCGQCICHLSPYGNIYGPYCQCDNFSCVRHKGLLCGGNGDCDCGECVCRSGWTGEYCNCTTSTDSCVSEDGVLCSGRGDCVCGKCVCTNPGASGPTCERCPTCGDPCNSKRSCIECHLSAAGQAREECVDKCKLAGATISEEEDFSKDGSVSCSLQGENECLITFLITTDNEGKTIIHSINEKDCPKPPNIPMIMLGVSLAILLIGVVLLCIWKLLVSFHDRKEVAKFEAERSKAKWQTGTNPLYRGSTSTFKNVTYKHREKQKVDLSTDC", "experiment": "Binding of ^99mTc–HYNIC–cHK to BxPC-3 cells, without or with cold peptide blocking", "type": "cell-based", "conditions": "4 °C, 4 h", "method": "The binding specificity of ^99mTc–HYNIC–cHK to integrin αvβ6 was evaluated in integrin αvβ6-positive BxPC-3 cells.\nIn vitro integrin αvβ6 binding specificity of ^99mTc–HYNIC–cHK was tested using the integrin αvβ6-positive BxPC-3 cells. Briefly, cells were seeded into 12-well plates and incubated overnight at 37 °C to allow adherence. After brief washing with PBS, tumor cells were incubated with 3.7 kBq ^99mTc–HYNIC–cHK with or without an excess dose of cold cHK or HK peptide at 4 °C for 4 h. Tumor cells were then washed with chilled PBS and harvested by trypsinization with 0.05% trypsin. The cell suspensions were collected and measured in a γ-counter (Wallac 1470-002, Perkin-Elmer, Finland). The cell uptake was expressed as the percent added dose (%AD). Experiments were performed twice with triplicate samples."}, "[4]": {"test_system": "bleomycin-induced fibrotic lungs", "experiment": "SPECT/CT imaging of bleomycin-induced pulmonary fibrosis", "type": "in vivo", "conditions": "C57/BL6 mice, 0.5 h after injection", "method": "as §1\n(§2) Small-animal SPECT/CT scans of subcutaneous BxPC-3 tumor and pulmonary fibrosis mouse models were performed using a SPECT/CT system (NanoScan; Mediso, Budapest, Hungary). Each BxPC-3-bearing mouse was injected via tail vein with 37 MBq (1 mCi) of ^99mTc–HYNIC–cHK. At 0.5 h and 1 h after injection, the mice were anesthetized by inhalation of 2% isoflurane and imaged using the Nano-SPECT/CT camera, The SPECT and CT fusion images were obtained using the automatic fusion software (InterView Fusion; Mediso Medical Imaging Systems, Budapest, Hungary).\nEach BLM- or PBS-treated mouse was administered with 37 MBq of ^99mTc–HYNIC–cHK via tail vein. […]"}, "BxPC-3 tumors": {"test_system": "BxPC-3 tumors", "experiment": "Small-animal SPECT/CT imaging of BxPC-3 cancer xenografts", "type": "in vivo, BALB/c nude mice", "conditions": "BxPC-3 tumor-bearing mice, 37 MBq i.v., blocking dose of cold HK peptide, P < 0.001", "method": "as §1, §2"}, "[5]": {"conditions": "for degree of metabolism in blood: mouse blood, 1 mCi i.v.", "method": "We performed the metabolism studies of ^99mTc–HYNIC–cHK using normal BALB/c mice. We analyzed the samples from both blood and urine to determine whether the radiotracer retains its chemical integrity at 0.5 h and 1 h postinjection.\nThe metabolic stability of ^99mTc–HYNIC–cHK was evaluated in female BALB/c normal mice. Each mouse was administered with the radiotracer at a dose of 1 mCi in 100 μl saline via intravenous injection. At 0.5 h and 1 h postinjection, the blood and urine samples were collected. The samples were centrifuged at 8000 r/min for 15 min. The supernatant was collected, filtered through a 0.22-μm Millipore filter, and then analyzed by radio-HPLC."}, "[6]": {"conditions": "37 °C, 0, 0.5, 1, 2 and 4 h, radio-HPLC", "method": "The in vitro solution stability of ^99mTc–HYNIC–cHK in fetal bovine serum (FBS) or L-cysteine was monitored by radio-HPLC.\n^99mTc–HYNIC–cHK was incubated in FBS or L-cysteine (1.0 mg/mL) for 0, 0.5, 1, 2, and 4 h at 37 °C to test the in vitro solution stability. After passing through a 0.22-μm Millipore filter, the samples were analyzed by radio-HPLC."}, "[7]": {"target": "T2, integrin αvβ6 on BxPC-3 cells (Homo sapiens, UniProt P06756+P18564)", "T2 construct": "Experiments were performed on high integrin αvβ6-expressing BxPC-3 cells; host or cells: BxPC-3 human pancreatic cancer cells", "T2 sequence (P06756 31-889 limits assumed)": "as the sequence (P06756 31-889 limits assumed) above", "T2 sequence (P06756 891-1048 partner limits assumed)": "as the sequence (P06756 891-1048 partner limits assumed) above", "T2 sequence (P18564 22-788)": "as the sequence (P18564 22-788) above", "experiment": "Displacement cell-binding assay with ^125I–HYK as radioligand", "method": "In vitro integrin αvβ6 binding affinities of cHK and HK were compared via displacement cell-binding assays (Dong et al. [2015]) using ^125I–HYK as the radioligand. ^125I–HYK was prepared by labeling HYK with Na^125I using the Iodogen method as previously reported (Liu et al. [2010]). Experiments were performed on high integrin αvβ6-expressing BxPC-3 cells. The best-fit 50% inhibitory concentration (IC50) values were calculated by fitting the data with nonlinear regression using Graph-Pad Prism (GraphPad Software, Inc.)."}}, "note": "Read-outs that look alike come from different tables or passages of the source. Where a SMILES comes first, the peptide text is derived from it. Bridges are numbered along the chain shown (N, C = ends). Where no end group is shown, it is not given here. The star is where a group is joined. HYNIC = NNc1ccc(C(=O)*)cn1"}
{"molecule": "CC(C)C[C@H](NC(=O)[C@H](CC(=O)O)NC(=O)CNC(=O)[C@@H](N)CCCNC(=N)N)C(=O)N[C@@H](C)C(=O)N[C@H](C(=O)N[C@@H](CC(C)C)C(=O)N[C@@H](CCCNC(=N)N)C(=O)N[C@@H](CCC(N)=O)C(=O)N[C@@H](CC(C)C)C(=O)N[C@@H](C)C(=O)N[C@@H](CCC(N)=O)C(=O)N[C@@H](CCC(=O)O)C(=O)N[C@@H](CC(=O)O)C(=O)NCC(=O)N[C@H](C(=O)N[C@H](C(=O)NCC(=O)N[C@H](C(=O)N[C@@H](CCCNC(=N)N)C(=O)N[C@@H](CCCCNC(=O)c1ccc(NN)nc1)C(=O)O)C(C)C)C(C)C)C(C)C)[C@@H](C)O", "note": "[^99mTc–HYNIC–HK, metal not drawn, reference compound] (H-RGDLATLRQLAQEDGVVGVRK(HYNIC)-OH; N-terminus and C-terminus assumed)", "values": [{"measurement": "tissue to tissue ratio at 0.5 h", "setting": "[1]; mouse, 370 kBq", "value": "1.82 ± 0.27"}, {"measurement": "tissue uptake at 0.5 h", "setting": "[1]; mouse, 370 kBq", "value": "0.58 ± 0.09", "unit": "%ID/g"}, {"measurement": "time to complete degradation in vivo after injection", "setting": "[2]", "value": "≤ 30", "unit": "min"}]}
{"molecule": "CC(C)C[C@@H]1NC(=O)[C@H](CC(=O)O)NC(=O)CNC(=O)[C@H](CCCNC(=N)N)NC(=O)[C@@H](N)CSSC[C@@H](C(=O)O)NC(=O)[C@H](CCCCNC(=O)c2ccc(NN)nc2)NC(=O)[C@H](CC(C)C)NC(=O)[C@H]([C@@H](C)O)NC(=O)[C@H](C)NC1=O", "note": "[^99mTc–HYNIC–cHK, metal not drawn] (H-CRGDLATLK(HYNIC)C-OH; disulfide 1-10)", "values": [{"measurement": "tissue uptake at 1 h", "setting": "[1]; BxPC-3 tumors, blocking with HK peptide 500 μg per mouse, n = 4, read-out: tumor uptake with coinjection of cold HK peptide", "value": "0.24 ± 0.04", "unit": "%ID/g"}, {"measurement": "tissue to tissue ratio at 0.5 h", "setting": "[1]; mouse, 370 kBq, BxPC-3 tumor-bearing nude mice, 0.5 h after injection, n = 4, read-out: tumor-to-muscle (T/M) ratio", "value": "2.99 ± 0.87"}, {"measurement": "tissue uptake at 1 h", "setting": "[1]; mouse, 370 kBq, BxPC-3 tumors, mean ± SD, n = 4, read-out: tumor uptake", "value": "0.43 ± 0.09", "unit": "%ID/g"}, {"measurement": "tissue uptake at 2 h", "setting": "[1]; mouse, 370 kBq, BxPC-3 tumors, 2 h after injection, mean ± SD, n = 4", "value": "0.33 ± 0.16", "unit": "%ID/g"}, {"measurement": "tissue uptake at 0.5 h", "setting": "[1]; mouse, BxPC-3 tumors, 0.5 h after injection, 370 kBq i.v., mean ± SD, n = 4, read-out: tumor uptake", "value": "0.63 ± 0.18", "unit": "%ID/g"}, {"measurement": "binding of ^99mTc–HYNIC–cHK to BxPC-3 cells (cell uptake)", "setting": "[3]; with excess cold HK peptide (300 μg) blocking", "value": "0.06 ± 0.007", "unit": "%AD"}, {"measurement": "binding of ^99mTc–HYNIC–cHK to BxPC-3 cells (cell uptake)", "setting": "[3]; with excess cold cHK peptide (300 μg) blocking", "value": "0.03 ± 0.005", "unit": "%AD"}, {"measurement": "binding of ^99mTc–HYNIC–cHK to BxPC-3 cells (cell uptake)", "setting": "[3]; without blocking, 3.7 kBq tracer, γ-counter, twice with triplicate samples", "value": "0.79 ± 0.01", "unit": "%AD"}, {"measurement": "lung uptake in PBS-treated mice (SPECT/CT)", "setting": "[4]; PBS control, 37 MBq i.v.", "value": "no significant uptake"}, {"measurement": "lung uptake in BLM-treated mice (SPECT/CT)", "setting": "[4]; bleomycin 1.5 units/kg intratracheal, day 21, 37 MBq i.v.", "value": "evident accumulation"}, {"measurement": "tumor uptake in the HK blocking group (SPECT)", "setting": "BxPC-3 tumors", "value": "almost completely inhibited"}, {"measurement": "in vivo stability compared to ^99mTc–HYNIC–HK", "setting": "[5]; comparison with linear peptide-based radiotracer (Liu et al. [2014b])", "value": "much more stable in vivo"}, {"measurement": "degree of metabolism in blood", "setting": "[5]; 0.5 h postinjection, radio-HPLC", "value": 9.94, "unit": "%"}, {"measurement": "degree of metabolism in blood", "setting": "[5]; 1 h postinjection, radio-HPLC", "value": 30.09, "unit": "%"}, {"measurement": "chemical integrity in urine", "setting": "[5]; mouse urine, 0.5 h and 1 h postinjection, radio-HPLC", "value": "retained its integrity"}, {"measurement": "time remaining stable in the presence of L-cysteine", "setting": "[6]; L-cysteine 1.0 mg/mL", "value": "more than 4 h"}, {"measurement": "time remaining stable in FBS", "setting": "[6]; fetal bovine serum", "value": "more than 4 h"}]}
{"molecule": "CC(C)C[C@@H]1NC(=O)[C@H](CC(=O)O)NC(=O)CNC(=O)[C@H](CCCNC(=N)N)NC(=O)[C@@H](N)CSSC[C@@H](C(=O)O)NC(=O)[C@H](CCCCN)NC(=O)[C@H](CC(C)C)NC(=O)[C@H]([C@@H](C)O)NC(=O)[C@H](C)NC1=O", "note": "[cHK] (H-CRGDLATLKC-OH; disulfide 1-10)", "values": [{"measurement": "IC50", "setting": "[7]", "value": "20.3 ± 1.17", "unit": "nM"}]}
{"molecule": "RGDLATLRQLAQEDGVVGVRK [HK, reference compound]", "values": [{"measurement": "IC50", "setting": "[7]; displacement cell-binding assay, BxPC-3 cells, nonlinear regression fit, read-out: IC50, inhibition of ^125I–HYK binding to integrin αvβ6 on BxPC-3 cells", "value": "3.55 ± 0.09", "unit": "nM"}]}
